# Results taken from PMC4889046 (PLoS ONE, 2016).
# Molecular target: the molecule itself
# Test: cross-linking
protein,measurement,value
"APOBEC4 fused to three C-terminal HA-tags (A4-HA) (natural protein, human, UniProt Q8WW27 1-367, looked up, also called A4-3xHA; pA4-HA; not shown: 3xHA, C-terminal, kept) MEPIYEEYLANHGTIVKPYYWLSFSLDCSNCPYHIRTGEEARVSLTEFCQIFGFPYGTTFPQTKHLTFYELKTSSGSLVQKGHASSCTGNYIHPESMLFEMNGYLDSAIYNNDSIRHIILYSNNSPCNEANHCCISKMYNFLITYPGITLSIYFSQLYHTEMDFPASAWNREALRSLASLWPRVVLSPISGGIWHSVLHSFISGVSGSHVFQPILTGRALADRHNAYEINAITGVKPYFTDVLLQTKRNPNTKAQEALESYPLNNAFPGQFFQMPSGQLQPNLPPDLRAPVVFVLVPLRDLPPMHMGQNPNKPRNIVRHLNMPQMSFQETKDLGRLPTGRSVEIVEITEQFASSKEADEKKKKKGKK",stoichiometry N,2
